Here are results for two substances from patent US20250186597A1, “TARGETED IMMUNE ACTIVATION WITH IL-18 IMMUNOCYTOKINES” (BRIGHT PEAK THERAPEUTICS AG, priority 2023, published 2025).

For assay [1], the target named is human IL-18BP-His (human) (UniProt O95998). In words: AlphaLISA detection of free IL-18BP after incubation with the IL-18 analyte.
The target is the same in assay [2]. In words: AlphaLISA for free IL-18BP; test item titrated (x axis) and pre-incubated with human IL-18BP-His, unbound IL-18BP detected.
For assay [3] the target is unchanged. In words: AlphaLISA detection of free IL-18BP.
The target of assay [4] is recombinant Human Fc gamma RIIA/CD32a (H167) Protein (R&D systems, 9595-CD-050, CF) (human) (UniProt P12318). In words: ELISA; antibody coated, Fc gamma receptor titrated.
Sequence of recombinant Human Fc gamma RIIA/CD32a (H167) Protein (R&D systems, 9595-CD-050, CF) (human) (P12318 36-218 limits assumed): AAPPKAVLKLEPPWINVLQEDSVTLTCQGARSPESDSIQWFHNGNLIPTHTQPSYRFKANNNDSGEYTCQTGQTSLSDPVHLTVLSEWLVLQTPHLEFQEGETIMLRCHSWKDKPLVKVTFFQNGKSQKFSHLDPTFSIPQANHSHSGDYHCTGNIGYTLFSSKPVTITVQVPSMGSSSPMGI
The target in assay [5] is recombinant Human Fc gamma RIIIA/CD16a Protein (R&D systems, 4325-FC-050; CF) (human) (UniProt P08637). In words: ELISA; antibody coated, Fc gamma receptor titrated.
Sequence of recombinant Human Fc gamma RIIIA/CD16a Protein (R&D systems, 4325-FC-050; CF) (human) (P08637 17-208 limits assumed): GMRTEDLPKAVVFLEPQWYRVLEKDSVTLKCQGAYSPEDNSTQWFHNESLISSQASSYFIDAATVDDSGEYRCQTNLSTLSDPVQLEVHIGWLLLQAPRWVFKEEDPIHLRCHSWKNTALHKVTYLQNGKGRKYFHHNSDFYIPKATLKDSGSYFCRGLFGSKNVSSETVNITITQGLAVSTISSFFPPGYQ
Assay [6] deals with recombinant Human Fc gamma RI/CD64 Protein (R&D systems, 1257-FC-050, CF) (human) (UniProt P12314). In words: ELISA; antibody coated, Fc gamma receptor titrated.
Sequence of recombinant Human Fc gamma RI/CD64 Protein (R&D systems, 1257-FC-050, CF) (human) (P12314 16-288 limits assumed): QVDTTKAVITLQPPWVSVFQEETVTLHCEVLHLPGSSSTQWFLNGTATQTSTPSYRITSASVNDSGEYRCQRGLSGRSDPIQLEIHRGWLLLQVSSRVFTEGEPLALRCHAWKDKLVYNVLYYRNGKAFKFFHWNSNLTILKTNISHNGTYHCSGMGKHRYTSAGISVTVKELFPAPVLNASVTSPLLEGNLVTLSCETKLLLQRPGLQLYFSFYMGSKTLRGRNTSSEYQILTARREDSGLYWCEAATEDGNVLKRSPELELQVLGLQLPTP
Assay [7] has as its target recombinant Human Fc gamma RIIB/CD32b Avi-tag Protein (R&D systems, AVI1875-050, CF) (human) (UniProt P31994). In words: ELISA; antibody coated, Fc gamma receptor titrated.
Assay [8] concerns the target recombinant biotinylated human FcRn (human) (UniProt P55899). In words: AlphaLISA competition at pH 6; competitor: human IgG on acceptor beads.
The target is the same in assay [9]. In words: AlphaLISA competition at pH 6; test molecule titrated (x axis) against human IgG-conjugated acceptor beads for biotinylated human FcRn on streptavidin donor beads.

Sequence of human IL-18BP-His (human) (O95998 31-194): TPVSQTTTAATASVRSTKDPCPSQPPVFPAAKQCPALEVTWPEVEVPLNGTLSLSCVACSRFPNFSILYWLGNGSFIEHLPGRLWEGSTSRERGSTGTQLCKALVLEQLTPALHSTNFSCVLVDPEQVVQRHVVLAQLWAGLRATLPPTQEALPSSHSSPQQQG
Sequence of recombinant biotinylated human FcRn (human) (P55899 24-297 limits assumed, chain 1 of 2): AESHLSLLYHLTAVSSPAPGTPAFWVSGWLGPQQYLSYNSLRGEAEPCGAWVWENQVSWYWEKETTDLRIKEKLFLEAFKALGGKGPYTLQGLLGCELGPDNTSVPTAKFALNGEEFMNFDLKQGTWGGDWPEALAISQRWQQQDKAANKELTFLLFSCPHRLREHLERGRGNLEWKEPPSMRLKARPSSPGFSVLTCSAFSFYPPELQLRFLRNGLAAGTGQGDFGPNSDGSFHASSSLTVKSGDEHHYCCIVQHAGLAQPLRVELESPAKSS
Sequence of recombinant biotinylated human FcRn (human) (chain, as listed by the source limits assumed, chain 2 of 2): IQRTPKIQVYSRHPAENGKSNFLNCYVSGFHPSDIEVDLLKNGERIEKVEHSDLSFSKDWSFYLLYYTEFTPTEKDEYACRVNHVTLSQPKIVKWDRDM
Sequence of recombinant Human Fc gamma RIIB/CD32b Avi-tag Protein (R&D systems, AVI1875-050, CF) (human) (P31994 46-217 limits assumed): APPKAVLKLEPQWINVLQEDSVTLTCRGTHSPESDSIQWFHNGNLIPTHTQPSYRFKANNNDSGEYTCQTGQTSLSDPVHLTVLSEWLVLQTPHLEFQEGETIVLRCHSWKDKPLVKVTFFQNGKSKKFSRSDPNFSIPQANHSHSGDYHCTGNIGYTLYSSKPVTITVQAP

For “native IL-18 wild-type (SEQ ID NO: 1) (from UniProt Q14116 37-193) (ligand)”, the Kd in assay [1] was 0.411 nM; in [3], 0.67 nM. Also, in [2], the IC50 (read off the curve) was found to be 0.4 nM.

On to LZM-009 (antibody), for which the equilibrium dissociation constant (Kd) in assay [4] is 1350 nM; in assay [5], 1710 nM; in [6], 0.315 nM; in assay [7], 2630 nM; in assay [8], 6 nM. Also, the IC50 (read off the curve) in assay [9] came out at 5 nM.
